Laboratory results: publication PMC4197964 (Genes & Development, 2014)

Molecular target: MBP-Spt16 (budding yeast, UniProt P32558 1-1035)
Assay: pull-down

MBP-Spt16, sequence (P32558 whole entry): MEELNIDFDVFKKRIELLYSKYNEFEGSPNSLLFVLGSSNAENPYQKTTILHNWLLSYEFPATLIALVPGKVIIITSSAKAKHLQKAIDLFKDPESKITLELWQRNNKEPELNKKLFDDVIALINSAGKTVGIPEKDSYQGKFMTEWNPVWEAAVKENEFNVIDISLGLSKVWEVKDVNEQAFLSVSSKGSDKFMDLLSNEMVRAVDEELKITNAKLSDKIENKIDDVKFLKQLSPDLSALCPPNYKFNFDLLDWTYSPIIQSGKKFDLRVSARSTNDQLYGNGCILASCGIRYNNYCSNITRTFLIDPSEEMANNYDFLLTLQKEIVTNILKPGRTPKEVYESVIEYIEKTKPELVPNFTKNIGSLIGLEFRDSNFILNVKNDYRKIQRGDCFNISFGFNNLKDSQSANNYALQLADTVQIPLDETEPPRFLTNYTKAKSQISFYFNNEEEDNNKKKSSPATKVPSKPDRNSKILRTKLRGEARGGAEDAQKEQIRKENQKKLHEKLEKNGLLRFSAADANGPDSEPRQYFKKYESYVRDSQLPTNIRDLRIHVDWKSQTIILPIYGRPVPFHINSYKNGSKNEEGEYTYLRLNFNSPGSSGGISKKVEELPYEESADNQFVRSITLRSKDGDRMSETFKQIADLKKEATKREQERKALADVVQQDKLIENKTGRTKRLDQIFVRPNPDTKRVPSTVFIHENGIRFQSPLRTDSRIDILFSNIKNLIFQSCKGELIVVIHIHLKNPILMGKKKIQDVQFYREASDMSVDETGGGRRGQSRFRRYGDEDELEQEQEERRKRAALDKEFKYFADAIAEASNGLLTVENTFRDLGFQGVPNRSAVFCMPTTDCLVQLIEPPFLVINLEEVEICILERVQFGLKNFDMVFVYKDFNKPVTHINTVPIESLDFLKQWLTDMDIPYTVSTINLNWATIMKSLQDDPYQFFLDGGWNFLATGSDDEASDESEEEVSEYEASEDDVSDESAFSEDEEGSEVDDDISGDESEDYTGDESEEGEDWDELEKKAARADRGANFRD

binding result: binds
B1: GST-Psh1, full-length [FL (1-406)] (enzyme, budding yeast, UniProt Q12161 1-406, looked up)
chain: MGDELHNRLLHQNDGTKDAILYKIIESLVCSICHDYMFVPMMTPCGHNYCYGCLNTWFASNTQKELACPQCRSDITTIPALNTTLQQYLSFILEKLRDQNDESFKKLLTTKTKEENDYKNDKEKDTLFDKVFKNSALAVADDSDDGITRCSNCHWELDPDEVEDGNVCPHCNARIRNYAGGRDEFDEEEYSEGELDEIRESMRRRRENRFASTNPFANRDDVSSEDDDSSEEEPMREHIPLGRWARSHNRSIAVDAVDDEDDEEEDEEEEEEMDSDLKDFIEDDEDDEDEDGSRRNLVLSALKNRHVIITDDEEEEQRRHATEEEDRDSDFYEHNDDGFVSGDSLDEDQKEVTRIQSSSDSEDRSLSYSGSSDVKDNNDDNTEELDDPQPKRQKRFRVVLGDSDDE
